Data on one molecule can be found in article PMC3285596 (PLoS Pathogens, 2012).

The test has as its target T1, STAT1_(1–683), truncated, unphosphorylated human STAT1 (human, UniProt P42224 1-683).
T1 construct: also called unphosphorylated STAT1_(1–683); not shown: HA, C-terminal, kept
T1 sequence (looked up): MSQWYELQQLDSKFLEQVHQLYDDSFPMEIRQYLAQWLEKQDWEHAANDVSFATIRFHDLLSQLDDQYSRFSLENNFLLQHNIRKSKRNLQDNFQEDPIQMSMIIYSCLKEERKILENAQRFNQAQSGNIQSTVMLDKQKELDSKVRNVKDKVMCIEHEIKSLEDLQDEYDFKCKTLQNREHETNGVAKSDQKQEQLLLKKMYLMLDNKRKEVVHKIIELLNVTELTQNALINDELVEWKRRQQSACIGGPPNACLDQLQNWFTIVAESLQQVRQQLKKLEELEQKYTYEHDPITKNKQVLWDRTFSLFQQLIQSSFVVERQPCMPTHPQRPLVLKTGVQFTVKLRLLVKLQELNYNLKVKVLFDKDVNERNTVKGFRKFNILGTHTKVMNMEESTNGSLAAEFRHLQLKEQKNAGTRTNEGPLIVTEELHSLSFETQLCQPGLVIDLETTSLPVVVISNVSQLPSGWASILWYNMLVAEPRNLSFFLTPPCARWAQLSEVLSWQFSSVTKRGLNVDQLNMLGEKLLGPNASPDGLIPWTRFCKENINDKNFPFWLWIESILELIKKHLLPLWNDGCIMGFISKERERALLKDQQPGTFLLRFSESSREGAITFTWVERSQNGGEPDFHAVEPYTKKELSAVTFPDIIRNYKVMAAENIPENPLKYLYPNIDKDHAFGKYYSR
The test is described as follows: ELISA. To be noted: both partners purified. For orientation: In an ELISA, binding on a coated surface is turned into a signal by an enzyme label.

B1: Ebola virus (Zaire) VP24 residues 1-233 (EBOV_(1–233)) (domain or fragment)
chain: MAKATGRYNLISPKKDLEKGVVLSDLCNFLVSQTIQGWKVYWAGIEFDVTHKGMALLHRLKTNDFAPAWSMTRNLFPHLFQNPNSTIESPLWALRVILAAGIQDQLIDQSLIEPLAGALGLISDWLLTTNTNHFNMRTQRVKEQLSLKMLSLIRSNILKFINKLDALHVVNYNGLLSSIEIGTQNHTIIITRTNMGFLVELQEPDKSAMNRMKPGPAKFSLLHESTLKAFTQG
On to B1, for which the binding result is recorded as “binds”.
